One block for each binder: values may come before it. No end group written: not given here.
B2: human WT lipocalin-type prostaglandin D synthase (L-PGDS) (natural protein)
chain: APEAQVSVQPNFQQDKFLGRWFSAGLASNSSWLREKKAALSMCKSVVAPATDGGLNLTSTFLRKNQCETRTMLLQPAGSLGSYSYRSPHWGSTYSVSVVETDYDQYALLYSQGSKGPGEDFRMATLYSRTQTPRAELKEKFTAFCKAQGFTEDTIVFLPQTDKCMTEQ
notes: Lipocalin-type prostaglandin D synthase (L-PGDS), human, wild type; 15N-labelled for the solution NMR; loaded with heme for the cryo-EM micrographs; unlabelled for ssNMR and ThT assays; also called WT L-PGDS; source: E. coli Rosetta 2 DE3 (pNIC-CH vector), purified (Superdex 75 in PBS)
B4: TGFBIp G623R peptide (residues 611-633 of the 4th FAS-1 domain), synthetic, as amyloid fibril (peptide)
peptide: EPVAEPDIMATNRVVHVITNVLQ
notes: Assayed as preformed amyloid fibril (many copies); also called G623R fibril; TGFBIp G623R fibril; source: synthetic peptide, bought: Synpeptide Co Ltd; fibrils formed in PBS at 37 °C, 180 rpm

Key:
[1] = target: the molecule itself; assay: solid-state NMR; 13C,15N-labelled A620D fibrils in a 1.9 mm rotor; 600 MHz, MAS 13333 Hz, 12 °C; NCA spectrum
[2] = target: B4; assay: cell-based or functional assay
[3] = target: B4; assay: cryo-EM micrographs; L-PGDS-heme complex (heme as contrast enhancer) mixed with G623R fibrils at 1:10; stoichiometry counted from the images; settings: both partners purified
[4] = target: B2; assay: solid-state NMR; unlabelled L-PGDS added to preformed 13C,15N-labelled G623R fibrils at 1:10; 1D 13C CP and 2D DARR (20 and 75 ms) compared with fibrils alone; settings: both partners purified
[5] = target: the molecule itself; assay: solid-state NMR; 13C,15N-labelled G623R fibrils packed in a 1.9 mm rotor; 18.8 T, MAS 17.857 kHz, 12 °C; NCA, NCO, DARR (20 and 75 ms), NCACX, NCOCX, CANCO; repeating unit calculated with CYANA
[6] = target: B2; assay: NMR titration; 2D 1H-15N HSQC of 15N-labelled L-PGDS without and with G623R fibrils at a molar ratio of 1:4 (L-PGDS: fibrils), 600 MHz; settings: both partners purified
[7] = target: the molecule itself; assay: cryo-EM structure; G623R fibrils, Titan Krios 300 kV, helical reconstruction in RELION-3.1, map at 4.9 Å; model built with the ssNMR restraints

B1: TGFBIp A620D peptide (residues 611-633), recombinant, uniformly 13C,15N-labelled, as amyloid fibril (peptide, UniProt Q15582 611-633, looked up)
peptide: EPVAEPDIMDTNGVVHVITNVLQ
modifications: also: uniformly 13C,15N-labelled
notes: also called A620D fibrils; source: E. coli BL21 (DE3), His-tag-BEAK-tag-TEV fusion, purified (Ni-NTA, TEV cleavage, reverse phase-HPLC); not shown: His-tag, N-terminal, cleaved; BEAK tag, N-terminal, cleaved
- binding result [1]: binds

Binder: B2
- persistence length of G623R fibrils in cryo-EM micrographs without and with L-PGDS [2]: 4 fold
- reduction of ThT intensity of preformed G623R fibrils after 24 h with L-PGDS at molar ratios of 1:2, 1:5 and 1:10 (52%, 27%, 19%) [2]: 52%
- stoichiometry N [3]: 7 peptides per L-PGDS

- binding result [4]: binds
B3: TGFBIp G623R peptide (residues 611-633), recombinant, uniformly 13C,15N-labelled, as amyloid fibril (peptide)
peptide: EPVAEPDIMATNRVVHVITNVLQ
modifications: also: uniformly 13C,15N-labelled
notes: also called double-labeled G623R fibrils; 13C-15N labeled G623R fibril; source: E. coli BL21 (DE3), His-tag-BEAK-tag-TEV fusion, purified (Ni-NTA, TEV cleavage, reverse phase-HPLC); fibrils seeded with 5% (w/v) synthetic G623R seeds in 20 mM TRIS, 37 °C; not shown: His-tag, N-terminal, cleaved; BEAK tag, N-terminal, cleaved
- binding result [5]: binds

Binder: B4
- binding result [6]: binds
- binding result [7]: binds

Reference: publication PMC10063603, “Release of frustration drives corneal amyloid disaggregation by brain chaperone” (Communications Biology, 2023)
